Where a chain is given by its changes, count along the chain named.

The target of experiment [1] is Kae1 (M. jannaschii Kae1, residues 1-328 of MJ1130) (Methanocaldococcus jannaschii, UniProt Q58530). Briefly: ATP-binding assay.
The target in experiment [2] is T1, GST-Kae1 T88R (M. jannaschii) (Methanococcus jannaschii, UniProt Q58530 1-328, T88R).
T1 sequence (looked up): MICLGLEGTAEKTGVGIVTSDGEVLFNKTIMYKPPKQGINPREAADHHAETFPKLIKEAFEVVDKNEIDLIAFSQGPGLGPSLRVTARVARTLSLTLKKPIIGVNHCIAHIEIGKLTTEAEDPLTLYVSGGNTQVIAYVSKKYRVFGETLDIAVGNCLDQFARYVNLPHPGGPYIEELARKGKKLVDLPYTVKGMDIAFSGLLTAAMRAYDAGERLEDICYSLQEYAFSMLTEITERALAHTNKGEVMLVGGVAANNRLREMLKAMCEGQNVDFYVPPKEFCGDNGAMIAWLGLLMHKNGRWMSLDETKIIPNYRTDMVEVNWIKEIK
Briefly: pull-down.

The target in experiment [3] is T2, GST-Kae1 T88R/T92R (M. jannaschii) (Methanococcus jannaschii, UniProt Q58530 1-328, T88R | T92R).
T2 sequence (looked up): T1 sequence (looked up) with T92R
Briefly: pull-down.

Experiment [4] concerns the target T3, GST-Kae1 T88R/R91E (M. jannaschii) (Methanococcus jannaschii, UniProt Q58530 1-328, T88R | R91E).
T3 sequence (looked up): T1 sequence (looked up) with R91E
Put plainly: pull-down.

For experiment [5], the target named is T4, GST-Kae1 (residues 1-328 of Methanococcus jannaschii MJ1130) (Methanococcus jannaschii, UniProt Q58530 1-328).
T4 sequence (looked up): T1 sequence (looked up) with R88T
Put plainly: pull-down.

Chain of Kae1 (M. jannaschii Kae1, residues 1-328 of MJ1130) (Q58530 1-328): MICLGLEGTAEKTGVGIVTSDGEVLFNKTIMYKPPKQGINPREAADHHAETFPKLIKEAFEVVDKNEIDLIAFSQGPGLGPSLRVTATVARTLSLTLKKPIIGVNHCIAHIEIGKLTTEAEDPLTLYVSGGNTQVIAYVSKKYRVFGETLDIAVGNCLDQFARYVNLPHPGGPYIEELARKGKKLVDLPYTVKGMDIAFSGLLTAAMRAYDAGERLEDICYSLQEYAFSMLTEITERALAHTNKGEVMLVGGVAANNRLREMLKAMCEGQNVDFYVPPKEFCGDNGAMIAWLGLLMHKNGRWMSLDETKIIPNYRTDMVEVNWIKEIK

For `Nc1ncnc2c1ncn2[C@@H]1O[C@H](COP(=O)(O)OP(=O)(O)OP(=O)(O)O)[C@@H](O)[C@H]1O` [ATP], in experiment [1], the Kd is 27 µM.

B1: Bud32 (residues 328-535 of Methanococcus jannaschii MJ1130), untagged (domain or fragment, UniProt Q58530 328-535, looked up)
chain: KGKKRKIPEHLIGKGAEADIKRDSYLDFDVIIKERVKKGYRDERLDENIRKSRTAREARYLALVKDFGIPAPYIFDVDLDNKRIMMSYINGKLAKDVIEDNLDIAYKIGEIVGKLHKNDVIHNDLTTSNFIFDKDLYIIDFGLGKISNLDEDKAVDLIVFKKAVLSTHHEKFDEIWERFLEGYKSVYDRWEIILELMKDVERRARYVE
For the molecule B1, the binding result in experiment [2], in experiment [3], in experiment [4] and in experiment [5] was “binds” each time.

In general, Kd refers to a measure of binding affinity in units of concentration. A low value points to tighter binding.

The values are drawn from article PMC3098719 (Molecular cell, 2008).
